In article doi:10.1101/2023.03.13.532385:

What was measured:
[1] = biological target: composite αS/N-protein fibrils (fibril strain s1, from plateau p1) (human | SARS-CoV-2) (UniProt P37840); test: co-sedimentation
[2] = biological target: human alpha-synuclein wild-type (human) (UniProt P37840); test: co-sedimentation

human alpha-synuclein wild-type (from UniProt P37840 1-140) (natural protein)
αS aggregated into fibrils at p1 [1]: 8 µM | αS aggregated into fibrils at p2 [2]: 24 µM
